The labels stand for the following.
B2: JD+, the Josephin domain plus residues 183-221 (ataxin-3 residues 1-221) (domain or fragment, UniProt P54252 1-221, looked up)
chain: MESIFHEKQEGSLCAQHCLNNLLQGEYFSPVELSSIAHQLDEEERMRMAEGGVTSEDYRTFLQQPSGNMDDSGFFSIQVISNALKVWGLELILFNSPEYQRLRIDPINERSFICNYKEHWFTVRKLGKQWFNLNSLLTGPELISDTYLALFLAQLQQEGYSIFVVKGDLPDCEADQLLQMIRVQQMHRPKLIGEELAQLKEQRVHKTDLERVLEANDGSGM
notes: ataxin-3 residues 1-221, made by a stop codon in the gene encoding ataxin-3 14Q; printed mass 27,704.4 Da; also called ataxin-3 1-221

Series [1] has as its target ataxin-3 78Q (UniProt P54252). Description: native MS; nanoESI-MS; 10 μM protein and 50 μM QBP1 (five-fold molar excess) in 250 mM ammonium hydrogen carbonate, 1 mM dithiothreitol, pH 7.8.
Series [2] has as its target ataxin-3 14Q (UniProt P54252). The series is described as above.
The target of series [3] is T1, MBP-183-221, maltose binding protein linked to residues 183-221 of ataxin-3 (UniProt P54252 183-221).
T1 construct: printed mass 49,207.6 Da; MBP drawn from PDB 1LLS; not shown: MBP, N-terminal, kept
T1 chain (looked up): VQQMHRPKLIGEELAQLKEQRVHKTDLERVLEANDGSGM
Description: native MS; nanoESI-MS; equimolar QBP1 (for the TEV-cleaved MBP fusion the ratio is not told). As to conditions: both partners purified.

The target of series [4] is ataxin-3 14Q (UniProt P54252). Description: native MS; nanoESI-MS; 16-fold excess of QBP1 over ataxin-3 14Q (Supplementary Figure 1).
For series [5], the target named is B2. Description: native MS; nanoESI-MS; 10 μM protein and 50 μM QBP1 (five-fold molar excess) in 250 mM ammonium hydrogen carbonate, 1 mM dithiothreitol, pH 7.8. The conditions noted are these: both partners purified.
The target of series [6] is T2, JDU1, the Josephin domain plus the first UIM (ataxin-3 residues 1-241) (UniProt P54252 1-241).
T2 construct: ataxin-3 residues 1-241, made by a stop codon in the gene encoding ataxin-3 14Q; printed mass 30,046.7 Da
The description is as above. The conditions noted are these: both partners purified.

Series [7] has as its target ataxin-3 78Q (UniProt P54252). Description: 1H T1rho NMR (signal of the peptide); 50 μM QBP1 and 10 μM protein in 250 mM ammonium hydrogen carbonate, 10% (v/v) D2O; 100 ms spin-lock; methyl region 0.45-0.75 ppm integrated.
Series [8] addresses ataxin-3 14Q (UniProt P54252). The description is as above.
Series [9] deals with the molecule itself. Description: native MS; nanoESI-MS; 10 μM protein and 50 μM QBP1 (five-fold molar excess) in 250 mM ammonium hydrogen carbonate, 1 mM dithiothreitol, pH 7.8.

Where no end group is shown, it is not given here.

The text below walks through data of PMC6134688, “Identification of a novel site of interaction between ataxin-3 and the amyloid aggregation inhibitor polyglutamine binding peptide 1” (European Journal of Mass Spectrometry (Chichester, England), 2017).

As usually defined, the stoichiometry N is a count of units in the complex or per binding partner.

B1: polyQ binding peptide 1 (peptide)
peptide: Ac-SNWKWWPGIFD
notes: printed mass 1477.6 Da; also called QBP1; source: synthetic peptide, bought: Bio-Synthesis Inc
As for B1, the stoichiometry N (in the series with ataxin-3 78Q [1]; with ataxin-3 14Q [2]; in [3]; in the series with ataxin-3 14Q [4]; in series [5]; in series [6]) was 1 each time. The loss of QBP1 signal in T1rho NMR was 24% with ataxin-3 78Q [7] and 22% in the series with ataxin-3 14Q [8].
Regarding B2, the “stoichiometry N” value in series [9] was 2.
